Data as given in publication PMC9482650, “Quantitative fragmentomics allow affinity mapping of interactomes” (Nature Communications, 2022).

The binders below were run against T1, USH1C_3, Q9Y6N9 (assay: holdup assay). Conditions: plain residues with an end cap or a label only (N-terminal biotin on a linker: ttds).
T1 sequence (Q9Y6N9 447-547, limits assumed, looked up): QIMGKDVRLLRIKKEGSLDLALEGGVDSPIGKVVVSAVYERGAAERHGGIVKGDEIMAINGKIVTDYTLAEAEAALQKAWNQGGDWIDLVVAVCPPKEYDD
Design: key: below the threshold = too weak to quantify, mostly under pKd 3.1 to 4

Binder	pKd
SSRTRRETQL [HPV16-E6, P03126]	below the threshold
RSLEEEESQL [GRASP, Q7Z6J2]	below the threshold

What follows are binders tested against T2, MLLT4, P55196 (assay: holdup assay). Conditions: plain residues with an end cap or a label only (N-terminal biotin on a linker: ttds).
T2 sequence (P55196 1002-1103, limits assumed, looked up): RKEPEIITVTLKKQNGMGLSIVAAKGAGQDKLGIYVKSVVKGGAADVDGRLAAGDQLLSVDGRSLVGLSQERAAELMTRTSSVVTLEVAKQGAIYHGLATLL
Design: key: below the threshold = too weak to quantify, mostly under pKd 3.1 to 4

Binder	pKd
SSRTRRETQL [HPV16-E6, P03126]	below the threshold
RSLEEEESQL [GRASP, Q7Z6J2]	below the threshold

What follows are binders tested against T3, PDZD11, Q5EBL8 (assay: holdup assay). Conditions: plain residues with an end cap or a label only (N-terminal biotin on a linker: ttds).
T3 sequence (Q5EBL8 42-139, limits assumed, looked up): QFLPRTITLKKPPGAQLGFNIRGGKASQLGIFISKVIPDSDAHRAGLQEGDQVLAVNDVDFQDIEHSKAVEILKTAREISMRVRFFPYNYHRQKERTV
Design: key: below the threshold = too weak to quantify, mostly under pKd 3.1 to 4

Binder	pKd
SSRTRRETQL [HPV16-E6, P03126]	below the threshold
RSLEEEESQL [GRASP, Q7Z6J2]	below the threshold

The binders below were run against MAGI3_5, Q5TCQ9 (assay: holdup assay). Conditions: plain residues with an end cap or a label only (N-terminal biotin on a linker: ttds).
Design: key: below the threshold = too weak to quantify, mostly under pKd 3.1 to 4

Chain of MAGI3_5, Q5TCQ9 (Q5TCQ9 847-941): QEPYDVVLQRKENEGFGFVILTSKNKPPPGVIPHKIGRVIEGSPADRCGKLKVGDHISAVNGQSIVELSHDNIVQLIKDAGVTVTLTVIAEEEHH

Binder	pKd
SSRTRRETQL [HPV16-E6, P03126]	3.96
RSLEEEESQL [GRASP, Q7Z6J2]	below the threshold

The binders below were run against T4, MPDZ_2, O75970 (assay: holdup assay). Conditions: plain residues with an end cap or a label only (N-terminal biotin on a linker: ttds).
T4 sequence (O75970 252-347, limits assumed, looked up): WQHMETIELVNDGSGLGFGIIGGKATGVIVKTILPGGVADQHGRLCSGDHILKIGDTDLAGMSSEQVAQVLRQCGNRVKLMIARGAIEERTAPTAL
Design: key: below the threshold = too weak to quantify, mostly under pKd 3.1 to 4

Binder	pKd
SSRTRRETQL [HPV16-E6, P03126]	below the threshold
RSLEEEESQL [GRASP, Q7Z6J2]	below the threshold

What follows are binders tested against T5, PDZD8, Q8NEN9 (assay: holdup assay). Conditions: plain residues with an end cap or a label only (N-terminal biotin on a linker: ttds).
T5 sequence (Q8NEN9 361-459, limits assumed, looked up): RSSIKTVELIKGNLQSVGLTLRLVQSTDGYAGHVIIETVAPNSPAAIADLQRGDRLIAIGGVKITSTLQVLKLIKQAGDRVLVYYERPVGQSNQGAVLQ
Design: key: below the threshold = too weak to quantify, mostly under pKd 3.1 to 4

Binder	pKd
SSRTRRETQL [HPV16-E6, P03126]	below the threshold
RSLEEEESQL [GRASP, Q7Z6J2]	below the threshold

Each binder was assayed against DVL2, O14641 (assay: holdup assay). Conditions: plain residues with an end cap or a label only (N-terminal biotin on a linker: ttds).
Design: key: below the threshold = too weak to quantify, mostly under pKd 3.1 to 4

Chain of DVL2, O14641 (O14641 260-359): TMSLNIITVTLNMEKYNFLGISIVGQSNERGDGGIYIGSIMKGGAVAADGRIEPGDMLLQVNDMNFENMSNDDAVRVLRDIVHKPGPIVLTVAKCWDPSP

Binder	pKd
SSRTRRETQL [HPV16-E6, P03126]	below the threshold
RSLEEEESQL [GRASP, Q7Z6J2]	below the threshold

The binders below were run against T6, DVL1, O14640 (assay: holdup assay). Conditions: plain residues with an end cap or a label only (N-terminal biotin on a linker: ttds).
T6 sequence (O14640 246-333, limits assumed, looked up): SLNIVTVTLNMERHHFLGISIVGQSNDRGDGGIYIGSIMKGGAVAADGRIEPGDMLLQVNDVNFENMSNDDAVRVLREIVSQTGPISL
Design: key: below the threshold = too weak to quantify, mostly under pKd 3.1 to 4

Binder	pKd
SSRTRRETQL [HPV16-E6, P03126]	below the threshold
RSLEEEESQL [GRASP, Q7Z6J2]	below the threshold

Each binder was assayed against MAGI1_3, Q96QZ7 (assay: holdup assay). Conditions: plain residues with an end cap or a label only (N-terminal biotin on a linker: ttds).
Design: key: below the threshold = too weak to quantify, mostly under pKd 3.1 to 4

Chain of MAGI1_3, Q96QZ7 (Q96QZ7 638-725): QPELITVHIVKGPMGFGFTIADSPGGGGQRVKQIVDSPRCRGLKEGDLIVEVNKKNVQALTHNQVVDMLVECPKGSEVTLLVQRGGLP

Binder	pKd
SSRTRRETQL [HPV16-E6, P03126]	4.16
RSLEEEESQL [GRASP, Q7Z6J2]	below the threshold

These binders were tested against PDZD9, Q8IXQ8 (assay: holdup assay). Conditions: plain residues with an end cap or a label only (N-terminal biotin on a linker: ttds).
Design: key: below the threshold = too weak to quantify, mostly under pKd 3.1 to 4

Chain of PDZD9, Q8IXQ8 (Q8IXQ8 23-120): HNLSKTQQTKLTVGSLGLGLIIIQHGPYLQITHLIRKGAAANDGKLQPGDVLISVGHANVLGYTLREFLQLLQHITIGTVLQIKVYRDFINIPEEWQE

Binder	pKd
SSRTRRETQL [HPV16-E6, P03126]	4.06
RSLEEEESQL [GRASP, Q7Z6J2]	below the threshold

Each binder was assayed against T7, SNTB2, Q13425 (assay: holdup assay). Conditions: plain residues with an end cap or a label only (N-terminal biotin on a linker: ttds).
T7 sequence (Q13425 110-208, limits assumed, looked up): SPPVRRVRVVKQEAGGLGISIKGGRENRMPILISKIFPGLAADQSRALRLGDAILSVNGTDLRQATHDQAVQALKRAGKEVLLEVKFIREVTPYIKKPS
Design: key: below the threshold = too weak to quantify, mostly under pKd 3.1 to 4

Binder	pKd
SSRTRRETQL [HPV16-E6, P03126]	4.12
RSLEEEESQL [GRASP, Q7Z6J2]	below the threshold

Each binder was assayed against T8, GIPC1, O14908 (assay: holdup assay). Conditions: plain residues with an end cap or a label only (N-terminal biotin on a linker: ttds).
T8 sequence (O14908 128-223, limits assumed, looked up): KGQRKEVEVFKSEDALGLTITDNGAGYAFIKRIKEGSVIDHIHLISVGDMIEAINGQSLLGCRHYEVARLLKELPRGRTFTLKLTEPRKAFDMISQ
Design: key: below the threshold = too weak to quantify, mostly under pKd 3.1 to 4

Binder	pKd
SSRTRRETQL [HPV16-E6, P03126]	4.13
RSLEEEESQL [GRASP, Q7Z6J2]	4.1

What follows are binders tested against RIMS2, Q9UQ26 (assay: holdup assay). Conditions: plain residues with an end cap or a label only (N-terminal biotin on a linker: ttds).
Design: key: below the threshold = too weak to quantify, mostly under pKd 3.1 to 4

Chain of RIMS2, Q9UQ26 (Q9UQ26 637-758): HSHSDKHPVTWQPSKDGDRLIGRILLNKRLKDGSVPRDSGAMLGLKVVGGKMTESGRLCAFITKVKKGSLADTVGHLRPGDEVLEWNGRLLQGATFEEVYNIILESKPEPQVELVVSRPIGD

Binder	pKd
SSRTRRETQL [HPV16-E6, P03126]	below the threshold
RSLEEEESQL [GRASP, Q7Z6J2]	below the threshold

The binders below were run against SDCBP_1, O00560 (assay: holdup assay). Conditions: plain residues with an end cap or a label only (N-terminal biotin on a linker: ttds).
Design: key: below the threshold = too weak to quantify, mostly under pKd 3.1 to 4

Chain of SDCBP_1, O00560 (O00560 111-198): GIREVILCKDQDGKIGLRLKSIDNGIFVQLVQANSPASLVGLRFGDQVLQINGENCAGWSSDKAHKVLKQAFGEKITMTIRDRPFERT

Binder	pKd
SSRTRRETQL [HPV16-E6, P03126]	below the threshold
RSLEEEESQL [GRASP, Q7Z6J2]	below the threshold

Each binder was assayed against AHNAK2, Q8IVF2 (assay: holdup assay). Conditions: plain residues with an end cap or a label only (N-terminal biotin on a linker: ttds).
Design: key: below the threshold = too weak to quantify, mostly under pKd 3.1 to 4

Chain of AHNAK2, Q8IVF2 (Q8IVF2 108-193): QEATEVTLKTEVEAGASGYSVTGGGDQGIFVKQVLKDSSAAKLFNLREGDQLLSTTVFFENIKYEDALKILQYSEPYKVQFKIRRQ

Binder	pKd
SSRTRRETQL [HPV16-E6, P03126]	below the threshold
RSLEEEESQL [GRASP, Q7Z6J2]	4.3

What follows are binders tested against DLG2_1, Q15700 (assay: holdup assay). Conditions: plain residues with an end cap or a label only (N-terminal biotin on a linker: ttds).
Design: key: below the threshold = too weak to quantify, mostly under pKd 3.1 to 4

Binder	pKd
SSRTRRETQL [HPV16-E6, P03126]	4.92
RSLEEEESQL [GRASP, Q7Z6J2]	below the threshold

The binders below were run against T9, MPDZ_7, O75970 (assay: holdup assay). Conditions: plain residues with an end cap or a label only (N-terminal biotin on a linker: ttds).
T9 sequence (O75970 1146-1253, limits assumed, looked up): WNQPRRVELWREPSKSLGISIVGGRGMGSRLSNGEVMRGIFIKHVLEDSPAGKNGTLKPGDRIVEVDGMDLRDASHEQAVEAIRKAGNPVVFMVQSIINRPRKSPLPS
Design: key: below the threshold = too weak to quantify, mostly under pKd 3.1 to 4

Binder	pKd
SSRTRRETQL [HPV16-E6, P03126]	4.22
RSLEEEESQL [GRASP, Q7Z6J2]	below the threshold

These binders were tested against T10, PREX2_2, Q70Z35 (assay: holdup assay). Conditions: plain residues with an end cap or a label only (N-terminal biotin on a linker: ttds).
T10 sequence (Q70Z35 672-764, limits assumed, looked up): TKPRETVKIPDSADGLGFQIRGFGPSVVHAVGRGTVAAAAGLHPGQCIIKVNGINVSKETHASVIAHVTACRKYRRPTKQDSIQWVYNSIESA
Design: key: below the threshold = too weak to quantify, mostly under pKd 3.1 to 4

Binder	pKd
SSRTRRETQL [HPV16-E6, P03126]	below the threshold
RSLEEEESQL [GRASP, Q7Z6J2]	below the threshold

The binders below were run against T11, NHERF1_2, O14745 (assay: holdup assay). Conditions: plain residues with an end cap or a label only (N-terminal biotin on a linker: ttds).
T11 sequence (O14745 149-244, limits assumed, looked up): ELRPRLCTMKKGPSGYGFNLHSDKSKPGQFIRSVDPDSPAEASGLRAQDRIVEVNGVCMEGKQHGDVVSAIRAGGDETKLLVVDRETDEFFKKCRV
Design: key: below the threshold = too weak to quantify, mostly under pKd 3.1 to 4

Binder	pKd
SSRTRRETQL [HPV16-E6, P03126]	3.89
RSLEEEESQL [GRASP, Q7Z6J2]	below the threshold

What follows are binders tested against T12, MPP5, Q8N3R9 (assay: holdup assay). Conditions: plain residues with an end cap or a label only (N-terminal biotin on a linker: ttds).
T12 sequence (Q8N3R9 251-346, limits assumed, looked up): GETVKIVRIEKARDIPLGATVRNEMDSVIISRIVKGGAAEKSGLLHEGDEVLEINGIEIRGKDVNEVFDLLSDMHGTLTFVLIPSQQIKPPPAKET
Design: key: below the threshold = too weak to quantify, mostly under pKd 3.1 to 4

Binder	pKd
SSRTRRETQL [HPV16-E6, P03126]	below the threshold
RSLEEEESQL [GRASP, Q7Z6J2]	below the threshold

Each binder was assayed against T13, PARD6B, Q9BYG5 (assay: holdup assay). Conditions: plain residues with an end cap or a label only (N-terminal biotin on a linker: ttds).
T13 sequence (Q9BYG5 152-260, limits assumed, looked up): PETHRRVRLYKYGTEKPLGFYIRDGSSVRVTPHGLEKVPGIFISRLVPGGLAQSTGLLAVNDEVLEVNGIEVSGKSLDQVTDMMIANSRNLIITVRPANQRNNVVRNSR
Design: key: below the threshold = too weak to quantify, mostly under pKd 3.1 to 4

Binder	pKd
SSRTRRETQL [HPV16-E6, P03126]	below the threshold
RSLEEEESQL [GRASP, Q7Z6J2]	below the threshold

These binders were tested against T14, CNKSR1, Q969H4 (assay: holdup assay). Conditions: plain residues with an end cap or a label only (N-terminal biotin on a linker: ttds).
T14 sequence (Q969H4 191-295, limits assumed, looked up): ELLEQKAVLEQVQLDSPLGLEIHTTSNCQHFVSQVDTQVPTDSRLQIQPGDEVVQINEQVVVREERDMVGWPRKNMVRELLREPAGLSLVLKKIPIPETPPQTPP
Design: key: below the threshold = too weak to quantify, mostly under pKd 3.1 to 4

Binder	pKd
SSRTRRETQL [HPV16-E6, P03126]	below the threshold
RSLEEEESQL [GRASP, Q7Z6J2]	below the threshold
